Data from the Immune Epitope Database (IEDB).
pKd: −log10 of the molar value. Values belong to the sequence of their own block, whether it stands above or below them.

Columns and labels:
HLA-A*32:01 = test: IEDB peptide-MHC binding, purified MHC/competitive/radioactivity; filed as Kd, often an IC50 or EC50 that approximates it; ≥ and ≤ were set here for values at or beyond the usual limits of such assays
HLA-B*15:01 = test: as above
HLA-B*35:01 = test: as above; conditions: source organism: Dengue virus 1 Brazil/97-11/1997
HLA-B*53:01 = test: as above; conditions: source organism: Dengue virus 1 Brazil/97-11/1997
HLA-A*30:02 = test: as above
HLA-B*08:01 = test: as above
HLA-B*51:01 [1] = test: IEDB peptide-MHC binding, purified MHC/competitive/fluorescence; filed as Kd, often an IC50 or EC50 that approximates it; ≥ and ≤ were set here for values at or beyond the usual limits of such assays; conditions: source organism: Yersinia pestis Nepal516
HLA-B*51:01 [2] = test: IEDB peptide-MHC binding, purified MHC/competitive/radioactivity; filed as Kd, often an IC50 or EC50 that approximates it; ≥ and ≤ were set here for values at or beyond the usual limits of such assays; conditions: source organism: Dengue virus 4 Philippines/H241/1956
HLA-A*01:01 = test: as above
HLA-B*44:03 = test: as above
HLA-A*68:02 = test: as above
HLA-A*26:01 = test: IEDB peptide-MHC binding, purified MHC/direct/fluorescence; filed as Kd, often an IC50 or EC50 that approximates it; ≥ and ≤ were set here for values at or beyond the usual limits of such assays; conditions: source organism: Mycobacterium tuberculosis str. Haarlem
HLA-A*24:03 = test: as above; conditions: source organism: Vibrio parahaemolyticus
HLA-A*02:02 = test: IEDB peptide-MHC binding, purified MHC/competitive/radioactivity; filed as Kd, often an IC50 or EC50 that approximates it; ≥ and ≤ were set here for values at or beyond the usual limits of such assays; conditions: source organism: Vaccinia virus WR
HLA-A*02:03 = test: as above; conditions: source organism: Vaccinia virus WR
HLA-A*02:06 = test: as above; conditions: source organism: Vaccinia virus WR
[3] = source organism: Dengue virus 3 Martinique/1243/1999
[4] = source organism: Vaccinia virus Copenhagen
[5] = source organism: Dengue virus 1 Brazil/97-11/1997
[6] = source organism: Dengue virus 2 Jamaica/1409/1983
[7] = source organism: Vaccinia virus WR
[8] = source organism: Dengue virus 4 Philippines/H241/1956
[9] = source organism: Dengue virus 1 Singapore/S275/1990
[10] = source organism: Dengue virus 2 16681-PDK53

Sequence: KTKLNDWDFV
pKd (HLA-A*32:01; [3]): 4.73

Sequence: LAMNSVFTF
pKd (HLA-A*32:01; [4]): 7.79

Sequence: LAVSGVYPM
pKd (HLA-B*15:01; [5]): 7.18
pKd (HLA-B*35:01): 7.78
pKd (HLA-B*53:01): 6.07

Sequence: LENENILHG
pKd (HLA-B*15:01; [4]): 6.51

Sequence: LGKSEFQIY
pKd (HLA-A*30:02; [6]): ≤ 4.11

Sequence: LGRNKRPRL
pKd (HLA-B*08:01; source organism: Dengue virus 3 Sri Lanka/1266/2000): 7.37

Sequence: LGSSFCLHA
pKd (HLA-B*15:01; [7]): ≤ 4.59

Sequence: LIITKVFSF
pKd (HLA-A*32:01; [7]): 7.08
pKd (HLA-B*15:01; [7]): 8.11

Sequence: LLFNSSFCI
pKd (HLA-B*15:01; [7]): 6.98

Sequence: LPDTGSWGI
pKd (HLA-B*51:01 [1]): ≤ 4.70

Sequence: LSIPPTAGIL
pKd (HLA-B*08:01; [8]): 5.63
pKd (HLA-B*51:01 [2]): 5.02

Sequence: LSPVRVPNY
pKd (HLA-A*01:01; [6]): 5.27
pKd (HLA-A*30:02; [6]): 7.30

Sequence: LTIESVNAL
pKd (HLA-A*32:01; [4]): 6.77

Sequence: MEAEGVITQ
pKd (HLA-B*44:03; [8]): 5.05

Sequence: MLHCYESYM
pKd (HLA-B*15:01; [7]): 7.01

Sequence: MLLVLCAVQL
pKd (HLA-B*08:01; [3]): 5.22

Sequence: MMKERSTIL
pKd (HLA-B*08:01; [7]): 7.46

Sequence: MRGAKRMAIL
pKd (HLA-B*08:01; [6]): 7.27

Sequence: MSFSCIAIGI
pKd (HLA-A*68:02; [3]): 8.29

Sequence: MTDEQIYAF
pKd (HLA-A*32:01; [7]): 7.75

Sequence: MVTHFDNTQV
pKd (HLA-A*68:02; [8]): 8.00

Sequence: NEMVLLQMED
pKd (HLA-B*44:03; [6]): 5.22

Sequence: NEMVLLTMKE
pKd (HLA-B*44:03; [5]): 5.25

Sequence: NPQTKQMAF
pKd (HLA-B*08:01; [7]): 7.84

Sequence: PNTNRAWNSL
pKd (HLA-A*32:01; [6]): 5.81

Sequence: PVPGDWLYF
pKd (HLA-A*26:01): 5.89

pKd (HLA-A*68:02; source organism: Homo sapiens): ≤ 4.22
Sequence: QLQVTEREEV

Sequence: RFTPVKHEL
pKd (HLA-A*24:03): 8.30

Sequence: RSISRTENF
pKd (HLA-B*15:01; [7]): 8.32

Sequence: RSWPLNEGI
pKd (HLA-A*32:01; [8]): 6.31

Sequence: RTVFFVLMML
pKd (HLA-A*68:02; [8]): 7.75

Sequence: RYRGEDGCWY
pKd (HLA-A*30:02; [6]): 6.70

Sequence: SAKQLRTRI
pKd (HLA-B*08:01; [7]): 6.70

Sequence: SASSMINGV
pKd (HLA-A*68:02; [3]): 7.54

Sequence: SPYNFFKRI
pKd (HLA-B*08:01; [7]): 6.37

Sequence: SSMRKTDWL
pKd (HLA-B*08:01; [3]): 6.62

Sequence: STFSISSIF
pKd (HLA-A*32:01; [4]): 8.98

Sequence: SVMNFIPII
pKd (HLA-A*02:02): 7.88
pKd (HLA-A*02:03): 8.20
pKd (HLA-A*02:06): 8.55
pKd (HLA-A*32:01; [7]): 9.22

Sequence: TLKGMSYVM
pKd (HLA-B*15:01; [9]): 7.75

Sequence: TLWAIINTI
pKd (HLA-A*32:01; [7]): 8.82

Sequence: TSKKRSWPL
pKd (HLA-B*08:01; [6]): 8.24

Sequence: TVTGGIFLFL
pKd (HLA-A*68:02; [6]): 7.27

Sequence: TWLPVLLGSL
pKd (HLA-B*08:01; [9]): 5.03

Sequence: VVQPENLEY
pKd (HLA-A*01:01; [10]): 6.42
pKd (HLA-A*30:02; [10]): 5.69

pKd (HLA-A*68:02; source organism: Homo sapiens): 5.35
Sequence: WLVLRINKAL

Sequence: WMINIMIHM
pKd (HLA-B*15:01; [7]): 6.18

Sequence: WNSGHEWVTD
pKd (HLA-A*32:01; [6]): ≤ 4.21

Sequence: WTLYAVATTI
pKd (HLA-A*68:02; [8]): 8.00

Sequence: YISKVFEHV
pKd (HLA-B*15:01; [7]): 7.03
